Reference: the supplement of paper PMC9112550, “Optimization of the antimicrobial peptide Bac7 by deep mutational scanning” (BMC Biology, 2022)

Tested on: Escherichia coli TOP10
Experiment: shrunken log2 fold change of peptide-encoding DNA abundance (4.5 h post-induction vs induction); higher = less antimicrobial activity (less host growth inhibition)
Conditions: time post-induction: 4.5 h; library: site-saturation at positions 5, 18, 19, 20
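Further: peptides expressed intracellularly from a pBAD plasmid library in pooled LB shake-flask culture, induced with 0.3% L-arabinose, DNA abundance read by NGS, three biological replicates, DESeq2 with apeglm shrinkage.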

Sequence	shrunken log2 fold change
RRIRGRPPRLPRPRPRPQFGPRP	0.0436
RRIRARPPRLPRPRPRPCSHPRP	0.0574
RRIRKRPPRLPRPRPRPLWGPRP	0.115
RRIRHRPPRLPRPRPRPSGAPRP	-0.0845
RRIRVRPPRLPRPRPRPSLTPRP	-0.231
RRIRLRPPRLPRPRPRPERRPRP	-0.0189
RRIRMRPPRLPRPRPRPKYIPRP	-0.161
RRIRGRPPRLPRPRPRPDKIPRP	0.813
RRIRFRPPRLPRPRPRPWYIPRP	-0.623
RRIRMRPPRLPRPRPRPEPGPRP	2.73
RRIRNRPPRLPRPRPRPSMKPRP	-0.609
RRIRDRPPRLPRPRPRPYYEPRP	-0.226
RRIRHRPPRLPRPRPRPDNKPRP	-0.27
RRIRRRPPRLPRPRPRPIHGPRP	-0.302
RRIRNRPPRLPRPRPRPFGAPRP	0.00377
RRIRGRPPRLPRPRPRPREIPRP	1.1
RRIRHRPPRLPRPRPRPWFDPRP	-0.0263
RRIRERPPRLPRPRPRPTHFPRP	-0.382
RRIRGRPPRLPRPRPRPHGPPRP	0.426
RRIRCRPPRLPRPRPRPCSIPRP	-0.143
RRIRTRPPRLPRPRPRPWKNPRP	-0.0599
RRIRFRPPRLPRPRPRPQPMPRP	0.302

Sequence	shrunken log2 fold change
RRIRIRPPRLPRPRPRPAQMPRP	-0.0791
RRIRFRPPRLPRPRPRPQRMPRP	-0.29
RRIRCRPPRLPRPRPRPDMWPRP	0.104
RRIRCRPPRLPRPRPRPCGEPRP	0.218
RRIRPRPPRLPRPRPRPRMAPRP	0.278
RRIRLRPPRLPRPRPRPTPKPRP	0.137
RRIRSRPPRLPRPRPRPQWWPRP	0.0138
RRIRLRPPRLPRPRPRPIDPPRP	-0.379
RRIRERPPRLPRPRPRPDTGPRP	-0.161
RRIRRRPPRLPRPRPRPKGYPRP	0.172
RRIRRRPPRLPRPRPRPECPPRP	0.176
RRIRGRPPRLPRPRPRPKYMPRP	0.104
RRIRSRPPRLPRPRPRPCSDPRP	0.21
RRIRDRPPRLPRPRPRPYPYPRP	-0.0176
RRIRHRPPRLPRPRPRPAEDPRP	0.262
RRIRNRPPRLPRPRPRPPMLPRP	-0.0624
RRIRRRPPRLPRPRPRPYGDPRP	-0.251
RRIRLRPPRLPRPRPRPKSFPRP	-0.0686
RRIRSRPPRLPRPRPRPGAPPRP	0.613
RRIRKRPPRLPRPRPRPGIGPRP	0.39
RRIRLRPPRLPRPRPRPARVPRP	0.329
RRIRMRPPRLPRPRPRPDDTPRP	2.17

Sequence	shrunken log2 fold change
RRIRDRPPRLPRPRPRPSDRPRP	0.159
RRIRMRPPRLPRPRPRPFKSPRP	-0.0472
RRIRTRPPRLPRPRPRPLYHPRP	-0.48
RRIRFRPPRLPRPRPRPTGTPRP	0.0314
RRIRSRPPRLPRPRPRPLCPPRP	-0.0602
RRIRMRPPRLPRPRPRPGMSPRP	-0.0593
RRIRERPPRLPRPRPRPLNPPRP	-0.0394
RRIRVRPPRLPRPRPRPYNWPRP	-0.603
RRIRIRPPRLPRPRPRPTSRPRP	-0.0459
RRIRYRPPRLPRPRPRPWARPRP	-0.116
RRIRLRPPRLPRPRPRPVCVPRP	-0.115
RRIRDRPPRLPRPRPRPPPIPRP	0.45
RRIRRRPPRLPRPRPRPLAQPRP	0.498
RRIRGRPPRLPRPRPRPPNCPRP	0.266
RRIRLRPPRLPRPRPRPKQPPRP	0.119
RRIRRRPPRLPRPRPRPWSVPRP	0.0267
RRIRCRPPRLPRPRPRPMVEPRP	0.237
RRIRERPPRLPRPRPRPEGMPRP	0.046
RRIRIRPPRLPRPRPRPLVWPRP	0.0428
RRIRARPPRLPRPRPRPDYGPRP	-0.679
RRIRPRPPRLPRPRPRPEQGPRP	-0.178
RRIRERPPRLPRPRPRPLLGPRP	-0.144

Sequence	shrunken log2 fold change
RRIRARPPRLPRPRPRPIIKPRP	-0.09
RRIRLRPPRLPRPRPRPERSPRP	0.293
RRIRGRPPRLPRPRPRPIGNPRP	-0.149
RRIRPRPPRLPRPRPRPHGCPRP	0.0229
RRIRKRPPRLPRPRPRPERPPRP	0.407
RRIRRRPPRLPRPRPRPDHGPRP	-0.146
RRIRERPPRLPRPRPRPLKNPRP	-0.477
RRIRQRPPRLPRPRPRPMVWPRP	-0.0183
RRIRDRPPRLPRPRPRPANTPRP	-0.0443
RRIRARPPRLPRPRPRPNFIPRP	-0.521
RRIRPRPPRLPRPRPRPQLNPRP	-0.0703
RRIRVRPPRLPRPRPRPGKSPRP	-0.0236
RRIRSRPPRLPRPRPRPISNPRP	-0.338
RRIRHRPPRLPRPRPRPDFTPRP	-0.0849
RRIRWRPPRLPRPRPRPRFEPRP	0.225
RRIRQRPPRLPRPRPRPFTPPRP	-0.388
RRIRKRPPRLPRPRPRPGIEPRP	1.34
RRIRYRPPRLPRPRPRPTRSPRP	-0.581
RRIRTRPPRLPRPRPRPEFDPRP	0.214
RRIRPRPPRLPRPRPRPFHMPRP	-0.301
RRIRCRPPRLPRPRPRPHLPPRP	-0.195
RRIRPRPPRLPRPRPRPHRGPRP	-0.0385

Sequence	shrunken log2 fold change
RRIRPRPPRLPRPRPRPVTDPRP	-0.393
RRIRDRPPRLPRPRPRPYFMPRP	-0.735
RRIRYRPPRLPRPRPRPKTDPRP	-0.863
RRIRMRPPRLPRPRPRPWLFPRP	0.457
RRIRCRPPRLPRPRPRPFRGPRP	-0.151
RRIRARPPRLPRPRPRPIRAPRP	0.242
RRIRWRPPRLPRPRPRPRFAPRP	0.695
RRIRHRPPRLPRPRPRPVRHPRP	0.251
RRIRVRPPRLPRPRPRPKWRPRP	0.327
RRIRNRPPRLPRPRPRPPIFPRP	0.0391
RRIRSRPPRLPRPRPRPYGWPRP	0.328
RRIRSRPPRLPRPRPRPMQLPRP	0.115
RRIRERPPRLPRPRPRPHETPRP	-0.0135
RRIRTRPPRLPRPRPRPFESPRP	0.0313
RRIRPRPPRLPRPRPRPRGRPRP	0.713
RRIRVRPPRLPRPRPRPAEDPRP	0.0101
RRIRKRPPRLPRPRPRPWPLPRP	-0.0227
RRIRYRPPRLPRPRPRPVPQPRP	-0.0271
RRIRERPPRLPRPRPRPLITPRP	-0.412
RRIRMRPPRLPRPRPRPFSAPRP	0.138
RRIRFRPPRLPRPRPRPCCFPRP	-0.354
